Data on 2 molecules can be found in paper PMC3517540, “Versatile Membrane Deformation Potential of Activated Pacsin” (PLoS ONE, 2012).

Assay [1] concerns the target T1, Human full-length pacsin-1 (human, UniProt Q9BY11 1-444).
T1 construct: pacsin-1 (syndapin-1), human, full length; The His6-SUMO moiety was cleavable with Ulp-1; also called pacsin isoform 1; syndapin; source: modified pET28a expression plasmid, purified as described previously [27], [35]
Kind of assay: pull-down; GST-PRD baits on GST SpinTrap resin, purified pacsin-1 prey 2 h at 4°C; 25 mM Tris-Cl pH 7.5, 100 mM NaCl; eluted with 10 mM glutathione; SDS-PAGE and Coomassie staining. The settings on record: both partners purified.

In assay [2] the target is T1, Human full-length pacsin-1. The assay is described as follows: SEC; pacsin-1 (40 µM) and GST-PRD (80 µM) incubated for 15 min, then size-exclusion chromatography; fractions analysed by SDS-PAGE and Coomassie staining. The settings on record: both partners purified.

T1 sequence (Q9BY11 whole entry, canonical isoform): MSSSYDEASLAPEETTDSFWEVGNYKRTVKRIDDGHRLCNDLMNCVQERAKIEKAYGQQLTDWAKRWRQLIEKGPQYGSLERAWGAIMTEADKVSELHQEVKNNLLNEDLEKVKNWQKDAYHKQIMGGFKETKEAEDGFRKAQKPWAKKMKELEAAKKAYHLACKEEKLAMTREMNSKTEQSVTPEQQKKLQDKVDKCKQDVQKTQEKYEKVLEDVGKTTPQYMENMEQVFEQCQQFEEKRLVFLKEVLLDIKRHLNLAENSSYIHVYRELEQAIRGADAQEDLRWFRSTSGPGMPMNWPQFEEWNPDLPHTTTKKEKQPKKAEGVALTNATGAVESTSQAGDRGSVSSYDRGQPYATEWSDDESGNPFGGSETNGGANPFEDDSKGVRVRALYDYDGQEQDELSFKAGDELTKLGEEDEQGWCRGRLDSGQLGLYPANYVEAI

B1: GST-PRD^trunc1 (mouse dynamin-1 PRD aa747-810 fused to GST) (domain or fragment, UniProt P39053 747-810, looked up)
chain: TTTVSTPMPPPVDDSWLQVQSVPAGRRSPTSSPTPQRRAPAVPPARPGSRGPAPGPPPAGSALG
notes: dynamin-1 PRD, mouse, aa747-810; also called tr1; source: purified as GST fusion protein (GSTrap, Superdex 200 SEC)
B1: in assay [1], the binding result is “binds”.

B2: Mouse dynamin-1 proline-rich domain (residues 747-842) fused to GST (domain or fragment, UniProt P39053 747-842, looked up)
chain: TTTVSTPMPPPVDDSWLQVQSVPAGRRSPTSSPTPQRRAPAVPPARPGSRGPAPGPPPAGSALGGAPPVPSRPGASPDPFGPPPQVPSRPNRAPPG
notes: dynamin-1 proline-rich domain (PRD), mouse, residues 747-842; 100% identical to the human dynamin-1 PRD; Construct from the De Camilli laboratory; also called GST-PRD; PRD^wt; source: expression vector pGEX-6P-1, purified (GSTrap, Superdex 200 SEC)
Regarding B2, in assay [2], the binding result is recorded as “binds”.
